This note sets out measurements from PMC8041466.

Test [1] concerns the target Cytotect (HCMV-IgG hyperimmunoglobulin preparation, human plasma pool, polyclonal IgG) (human). Kind of test: flow cytometry on cells; same set-up; pairs of the vFcγR on infected cells with Cytotect IgG. For orientation: Flow cytometry measures light scatter and fluorescence of single cells or particles in a stream.
Test [2] has as its target Rituximab (humanized anti-hCD20 IgG1) (human). The test can be described thus: flow cytometry on cells; same set-up; pairs of the CD4-tailed vFcγR on the cells with Rtx.

Chain of Rituximab (humanized anti-hCD20 IgG1) (human) (heavy, as listed by the source, chain 1 of 2): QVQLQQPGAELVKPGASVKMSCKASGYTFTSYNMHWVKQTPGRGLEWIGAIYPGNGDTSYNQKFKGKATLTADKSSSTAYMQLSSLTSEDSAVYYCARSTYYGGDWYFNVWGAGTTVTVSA
Chain of Rituximab (humanized anti-hCD20 IgG1) (human) (light, as listed by the source, chain 2 of 2): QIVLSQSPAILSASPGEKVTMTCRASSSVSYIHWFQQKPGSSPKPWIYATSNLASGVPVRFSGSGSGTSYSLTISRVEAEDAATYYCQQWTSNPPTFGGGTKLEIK

In turn, “gp68 natively expressed on HCMV AD169/pBAC2 mutant-infected MRC-5 cells (from UniProt P16739 24-345) (natural protein)” gave a percent reduction of FcγRIII binding in test [1] of 60%.

“gp68-CD4 (gp68 with the transmembrane and cytosolic domains of human CD4)” returned a percent reduction of FcγRIII binding in test [2] of 60%.
